Data reported in the RNAGym collection of RNA variant scans (doi:10.1073/pnas.2313332121).

B1: TPR t1 (parent)
chain: GACCAAUCUGCCCUCAGAGCUCGAGAACAUCUUCGGAUGCAGAGGAGGCAGGCUUCGGUGGCGCGAUAGCGCCAACGUCCUCAACCUCCAAUGCAUCCCACCACAUGAUGAUGCCUGAAGAGCCUUGGUUUUUUG

Variants of: B1
Assay: polymerase ribozyme fitness, log enrichment relative to wild type (log ratio); higher = more active; in vitro selection for triplet polymerase activity
How it was run: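 Fitness compares each genotype's enrichment to that of the wild type on a logarithmic scale, averaging replicates with inverse-variance weights. The logarithm is base 2. Enrichment came from Illumina sequencing of input and output libraries after one triplicate round of in vitro selection, which included frozen incubation at −7 °C, of PCR-built, transcribed mutant libraries of each subunit of a heterodimeric triplet polymerase ribozyme. Only genotypes with ≥10 input reads and ≥1 read per output were kept.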

Variant | polymerase ribozyme fitness (log ratio)
G110A G117U | -4.78
U96A U131G | -1.96
C115A C124U | 0.564
G110A C124G G128C | -3.19
C114G G127A | -4.97
U112A G128U | -0.362
C101A U106C G110C U134G | -4.82
G93U G110C | -4.54
C99A U112A G120A | -5.93
C104A G122A | -2.31
C99A C102U | -4.82
A111U G113A | -4.49
U112A C115A | 1.16
C114A U116G | -3.78
A100U A111G | 0.222
G113A C115U | -3.6
G113A G122A | -2.77
C114A G117U | -6.19
U96A C98U | -3.4
C94A U112C U126G | -0.847
U109A U131G | -5.71
C101G G122C C124A U126A | -3.82
C101U G117C | -3.39
C94A C101G | -2.45

Variant | polymerase ribozyme fitness (log ratio)
U96A C123G | 0.707
C97U C123G U126A | 0.329
G113A G135U | -2.05
G113A G128A | -2.92
U96G C102A G127C | -3.73
U109C | -2.41
U109A | -5.11
U109G | -4.35
C98A C123U | -4.06
C94A G128A U129G | -3.11
C97U G110A | -1.67
A103U U106G | -4.14
G117A A121C | -0.623
U116G G128U | -4.55
C101U A108U U109G | -6.14
C98U U116C | -1.99
U112A U130C | 1.38
U112A U130G | -0.266
C101G C124G | -0.536
G110U G117C | -5.42
G117A G120A | -2.42
U112G G127C U130C | -0.498
U116A U125A | -3.4
U112C U116A | -1.02

Variant | polymerase ribozyme fitness (log ratio)
C115U G128A | -2.99
C98A C104U | -4.88
C94U C101A | -1.52
A95G C98G G120U | -6.09
C99A C102A U109A G127C | -6.24
A95G C102U | -1.91
C101U G135U | -1.68
U109G A118G | -5.14
A100C G117A | -2.55
C104U C115A | 0.0102
C104U C115G | -1.22
U106A G117U G127U | -0.344
C101A G113A G122C | -1.6
G110C G120U | -4.38
C115U U116C | -2.06
C94U | -0.383
C94A | -0.804
C94G | -0.92
G110A G122A C123U | -2.1
C94G G113A | -3.13
U96A C115A | -3.09
G93U C98U G120C | -3.66
A95G C104A U109C C114U C124A | -2.73
C94A G127U U134G G135U | -2.31

Variant | polymerase ribozyme fitness (log ratio)
C101G G120C | -0.696
C98U G117C | -5.29
G113U U129A | -3.53
A111G C114G C123U | -6.41
U112C C123A | -0.0765
G110C G117U | -5.43
A95C G120U | -0.765
C115G U126C U132A | -4.83
A103C G107A U112G G113A | -6.72
A95U A119U U125A G127U | -2.7
U96G C102G C124U U125A | -6.03
A95C U106A C124U | 1.29
U112G U125C | 0.47
C98A A111U | -5.78
C101A C115U | -2.63
G93C C104A A118U | -1.82
G107U C114U | -3.8
C115A G120U | -0.0245
C104U U112G | 0.761
C97U U116G | -2.81
A111C U131A | -1.12
C114A G122A | -2.53
G107A U130C | -4.85
G110C U129G | -5.19

Variant | polymerase ribozyme fitness (log ratio)
G113U C124G | -1.38
A95G C123G | 1.72
C102A G135U | -3.13
C97A C114U | -5.03
C101U G107C | -6.63
C94G C123U | 0.403
C97U C98A | -4.41
C114U U129G | -4.52
C114U U129A | -3.98
C114G G135U | -2.93
C115U U131A | -0.58
C98A A100G C114A | -6.06
A111U U125A | -3.84
G93C U106A | -0.61
A103G C115U U129G U133A | -5.83
C98U U125G | -2.35
U109C A118U | -4.34
U106G G110C U112C | -5.6
G93U G128C | -4.57
G93C U112A | 0.679
G113A A119U U126A | -3.89
C115A A119U G122U | -0.198
A103C C104A | -2.67
U112A G120A | 0.565

Variant | polymerase ribozyme fitness (log ratio)
G93U G122A | -1.55
A95C C101U U106A | -0.358
C97A U112C | -2.11
C97U G117A | -2.32
C115A G122A | -0.767
C97G G127U | -3.75
C94U C114U | -2.58
A95C U116C U129A U131C G135U | -3
A100U U125G | -0.739
G93C U96C G110A A118C | -2.57
C102A U130A | -3.46
A95U A103G | -6.8
C115A U126C | -0.397
C98U U116A A119G | -0.385
A100C C101G C104A C124A | -3.18
C101A G117U G122A U125A | -4.5
C102A C123G | -0.232
U96A U112C G127C | -0.056
C99U G117U | -3.93
C99U U133A | -2.99
U96C C123G | 1.78
C98A G120A | -3.18
C94U G107A | -4.87
C104U U116C | -0.608

Variant | polymerase ribozyme fitness (log ratio)
G110U G135C | -1.54
G110A U112C G117A | -4.79
A103U U132A | -5.02
C97U U106A U132G U133A | 0.00837
U109A U132C | -5.12
A105C U125G | -3.17
G110C U125C | -2.68
U116A A121G | 0.178
C101A G113A | -2.4
U96C A118U | 1.27
C101U G110C | -3.42
A103U G113A | -3.81
C97A | -4.67
C97U | -0.53
C97G | -4.4
A95U G113U U125A | -3.81
G113C C115U | -3.35
A100U G113C | -2.85
A100C U106A U132C | -0.19
C98U G110A | -2.39
C98U G110C | -4.91
U112C U132A | 1.65
A111G U132A | 0.715
